According to a protein production outcome set (Wang et al. 2014):

Test: label from the status in PepcDB records
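Further: failed if final PepcDB status was selected cloned or expressed and not failed if soluble or beyond.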

MASDREEFNLCGPTHLTTVDWGNEDHQRCVAACLVQGIYIVEQDRQLKREGTEALASPWWESFNFKLIRHLKDDADFSIFGGIFEYKSLQPDVVDSGVPRYVIAFRGTLTKADSITRDIELDIHIIRNGLHRTSRFEIAMQAVRSMADSVGASSFWLTGHSLGAAMALLAGKTMGKSGVYIKSLLFNPPYVSPPIERIANERVRHGIRFAGSLITAGLALSRTLKQTQQPQQQQLQLQNLTEDPLEALSSWLPNIHVNPGDHLCSEYIGFFEHRGNMEQIGYGAGIVERMAMQHSLGGLLMDAMGVSNAVEVEEPVHVIPSANLIVNKTISEDYKDAHGIHQWWRDDQDLVSHIYMYK
protein production: failed

MSINLQLETPRLLLREFQNSDKVAFAAYRSDPGTAKYQSWDTPYSEAQAEAFIESLQHLTSSILGEWYQLAIELKSTRQIIGDCAFCILAEDGKQGEIGFTLARKYQGNGYGTEAVIFLLNYLFNHLNLHRVRANCDPENLASIKLLERVGMRLEGRFIKSLWFKNNWVDEMWFAILQDEFTAVNV
protein production: failed

DAALCAFDADGVVTHWNREAERILGWTAAEAVGRRGFAGWAVRTADAEDVEARLMTAMQAPGRQVHEFALLTKDGGRVLVRTQSAAVHGPDGKPAGVYCAFSEVH
protein production: not failed

MNTLSVLLSLFTVIVVQRVFKKLSISLLSGVIVMILSLKVRNILEIFFWTVSSDSFWSLIVTVFLIYLLSGMMEKSGDYSRFSEEMRTIFSKNVDSFVPALIGLMPMPGGALFTAPIVKNSLPEENSLKLAVKNYWFRHTIEFFWPIYPAVVLVSELSGIHPGKVSLTLFPVFAIAFFLGWFFFNGKQLPCLSKPRSFFNLFPLIPVLGTGVLILLFKVSGWFALLLSTSGYAVFRRRYLLKTLKQVFNKWDVFLVLFFVYIYKVVVEHSGVGEGIAAEFVRWNLSPWILLIFLPLVSGISTGITQAAVGISLPVLMEVFSSKYAVYTYMFAVGGVILSPVHLCVVLSAKFFEVEVFDILKKVFLPLVLTLILGALVLGVIL
protein production: failed

MTTKRVNTATNKIMTLNTFLDTCFLLFISILFYLSIPIYPNKVVVVPQGSLKKVFFSLKEQGVDMNALDLLFLRLMGMPKKGYIDMGDGALRKGDFLVRLIKAKAAQKSATLIPGESRYFFTQILSETYQLETSDLNQAYESIAPRLNGEVIEDGVIWPDTYHLPLGEDAFKIMQTLIGQSMKKHEALSKQWLGYYHKEEWFEKIILASIVQKEAANVEEMPLIASVIFNRLKKGMPLQMDGALNYQEFSHAKVTKERIKTDNTPYNTYKFKGLPKNPVGSVSLEAIRAVIFPKKTDFLYFVKMPDKKHAFSATYKEHLKNINLSNNHF
protein production: failed

PRPDKCPCEVYHLMKNCWETEASFRPTFENLIPILKTVHEKYQGQAPSVFSVC
protein production: failed

RRHYIDAFGTGPGFAAVASFYPGCFRIKPPGGRDYDLVGPDIAQPLLLLMGDADTETPAAECVDKLTPLKAAGAPVEWHVYPSTTHCWDCQQLDGRSKTDVRGNHVAYRYQPDVVADSERRLFAFLER
protein production: failed

MFLVNNIRCSNMAEFPYTTVPGKIKPFFQKIQEAGLPSKVTQKWINSIGFTSSNDPSIIPLLKKLGFIDRSGVPTELWARYRDKDLAPKVMAEAIKNAYKELFETYPDAYRKDKEALRNFFASQTGKAENTIEKMIQTFKALCELADFESNSEEYPHNEVVPSREGLTTLMEKQTPKGLTINVNIQLQLPATTDEEVYDKLFRSLKRNLLSE
protein production: not failed

METLSVGHKIKTLRQSLGLSQRDLAEGICTQALISHIEKNKTTPTVDVFFNIAKKLGAPADYFLETHDNSLDYILEVQYQIRKQVQEHNYEEALNIIKTERKNPIFNNSKYLQFLLWHEAICEYSLNKRYNEAVEAIEEALKLTHKEGNSYSEREIEILISLANFHDSEKKYDLSTKIYQDINDSLKALSYLSDRKIQLRFLFNYSLNRNNVKRYKEAIDLCNKGIILCKQHGFLYSFGEFHYQKGQNLIDLGRKKEALKFLEKAKMIFDIQDNELFANIADKEIKKLQKSLEMTVS
protein production: failed

WPGRDRLRHLEPLRSITQLAALLANELEASVSPDTPLLLAGHSMGAQVAFETCRLLEQRGLAPQGLIISGCHAPHLHSERQLSHRDDADFIAELIDIGGCSPELRENQELMSLFLPLLRADFYATESYHYDSPDVCPPLRTPALLLCGSHDREASWQQVDAWRQWLSHVTGPVVIDGDHFYPIQQARSFFTQIVRHFP
protein production: failed

SLVDGKLVCVTGAGGYIASWIVKLLLERGYTVRGTVRNPTDPKNNHLRELQGAKERLTLHSADLLDYEALCATIDGCDGVFHTASPMTDDPETMLEPAVNGAKFVIDAAAKAKVKRVVFTSSIGAVYMNPNRDTQAIVDENCWSDLDFCKNTKNWYCYGKMLAEQSAWETAKAKGVDLVVLNPVLVLGPPLQSAINASLVHILKYLTGSAKTYANLTQVYVDVRDVALGHVLVYEAPSASGRYILAETALHRGEVVEILAKFFPEYPLPTKCSDEKNPRAKPYKFTTQKIKDLGLEFKPIKQSLYESVKSLQEKGHLPLPQDSNQNEVIIES
protein production: failed

MVTPIAVVGPTASGKSALGIALAHKLDGEVVNVDSMQLYKGMDIGTAKLTVEEREGIAHHQLDVWDVTETASVARFQSDAVADVEDIMSRGKTPILVGGSMLYVQSLVDDWQFPPTDSAVRARFEARLADIGVEALHAELTQLDPEAAAVIESNDPRRTVRALEVIELTGQPFQASQPPKDAPPRWGTRIIGLKTTPEWLNPRIEQRTARMFEQGFVAEVEHLVQQGLIADSTAGRAIGYSQVLAAMAGEMTWEDAFERTVTGTRRYVRRQRSWFNRDHRVSWVDASGDPTAQALEILGLQLEHHHHHH
protein production: not failed

PAMICRYRPDLTLTFGNRPLAAYLECAPEELPGSNLGQWLSAEQREGFERRLKLLSPEYPVSTAEINLQLPGREHAWWVWSDRGVFDEQGQLLEIQAVGRDNTEVRRAQQQLTQSAKMATLGEMATGLAHEINQPLNVMRMAIVNVLKRLGNG
protein production: failed

MSLIIQVSPAGSMDLLSQLEVERLKKTASSDLYQLYRNCSLAVLNSGSHTDNSKELLDKYKNFDITVMRRERGIKLELANPPEHAFVDGQIIKGIQEHLFSVLRDIVYVNMHLADSQRLNLTNATHITNLVFGILRNAGALIPGATPNLVVCWGGHSINEVEYQYTREVGHELGLRELNICTGCGPGAMEGPMKGAAVGHAKQRYSEYRYLGLTEPSIIAAEPPNPIVNELVIMPDIEKRLEAFVRMAHGIIIFPGGPGTAEELLYILGIMMHPENADQPMPIVLTGPKQSEAYFRSLDKFITDTLGEAARKHYSIAIDNPAEAARIMSNAMPLVRQHRKDKEDAYSFNWSLKIEPEFQLPFEPNHESMANLDLHLNQRPEVLAANLRRAFSGVVAGNVKAEGIREIERHGPFEMHGDPVLMKKMDQLLNDFVAQNRMKLPGGSAYEPCYKIVTEGHHHHHH
protein production: not failed

MEIRTFLERALKEDLGHGDLFERVLEKDFKATAFVRAKQEGVFSGEKYALELLEMTGIECVQTIKDKERFKPKDALMEIRGDFSMLLKVERTLLNLLQHSSGIATLTSRFVEALNSHKVRLLDTRKTRPLLRIFEKYSVLNGGASNHRLGLDDALMLKDTHLRHVKDLKSFLTHARKNLPFTAKIEIECESFEEAKNAMNAGADIVMCDNLSVLETKEIAAYRDAHYPFVLLEASGNISLESINAYAKSGVDAISVGALIHQATFIDMHMKMA
protein production: failed

MVSKRLTGAVALLFLAAGAAGAAGLTVKEQLGKDIFFDTNLSINGNQSCADCHAPEAGWTGPTSEVNAHGAVYEGSIAGRFGNRKPPSSAYATTAPILKYIRQGGGMFVGGNFWDGRATGEKLGNPAADQAQGPFLNPLEQGLPDSACVVHRVCTATYGTAMETLWPGSCAIAWPADVAAACATEGTVVNLDAPNRAASDLAYDYIALAIAAYEGSTESNAFTSKYDAFLAGKAFLTPEERRGLTLFNGKAKCARCHVNTGRAPLFTDYTYDNLGVPRNSENPFYESAFNPLGINWIDQGLGGFLASRIDYSRFATANLGKHKVPTLRNVDKKTSPDFVKAFGHNGYFKSLKEIVHFYNTRDVLPTCAPGSPGEKVTCWPEPELALTMNTTELGNLKLSDAEEDALVAFMKTLTDGYQP
protein production: failed

MVRVDQNLFNEVMYLLDELSQDITVPKNVRKVAQDSKAKLSQENESLDLRCATVLSMLDEMANDPNVPAHGRTDLYTIISKLEALSKS
protein production: not failed

MLLISKKSALAAASTTLFVLLWSSGAIFSKWGLAHASPFAFLLLRFVIALIGLMLLAPLLKLRLPRGRRAMGFAVATGLVLLGAYQIFYILALDLKVTPGVMATIMGVQPILTVVLMERQRSWSRLFGLSLGLAGLVMVVYQSIGLAGMSITGMLCGLLALVSMTAGSIMQKRITDNPLGTLPVQYLAGLLLCALFVPFQPFHFEHSAGFVIPLLWMGLVVSVLATLLLYRLIAQGNLVNVTSLFYLVPAVTALMDYLFFGNRLGLLSLVGMGLIIVGLVFVFRKQP
protein production: not failed

MREGRLGYNSYNKRYGLLSSDLWIDTGFHCGEYLEVLLDDEWVQTRMEMNPAREWYLVGTPYCGDLEYIRARIPE
protein production: failed

MGRRLVPLTLDNLPDLPKRCRACVFWELDPVSGEAAVKAGTSALEKEAWISAVLLDWGSCGRVVYVDDVPVGFVLYAPPAYVPRSTAFPTSPVSPDAVQLMTAFIMPGYQGQGLGRVMVQTVAKDLLRRGFKAIEAFGDAHWK
protein production: failed

MIYQVDGKTIVLVLEQGEDIVEAVTDIAREQNGKFGTVSGIGACSSAELNFYNLETQTYEKKLIDEPLELIGLMGNISHIDEQPFAHLHATFGTNQYETLSGHLTKAVVSATAEIIITMTNLDINRKHNETIGLNLLDLLEHHHHHH
protein production: not failed

MRRRRRRDGFYLAPDFRHREAEDMAGVFDIDLDQPEDAGSEDELEEGGQLNESMDHGGVGPYELGMEHCEKFEISETSVNRGPEKIRPECFELLRVLGKGGYGKVFQVRKVTGANTGKIFAMKVLKKAMIVRNAKDTAHTKAERNILEEVKHPFIVDLIYAFQTGGKPYLILEYLSG
protein production: not failed

MKTVILIGALGKMGQAALTGLSKHKVITAGRSGNVDHLVDITNENSIRALYEKVGHFDAVVNTVGFCEYATFAEMTEAQWMTTVMSKMMGQINLVRIGQEYIADKGSFTLISGILNVKPIPCAIADATTSGAIDTFVKCVAYEMQRGTRINVVNPTVLTEAWDVYGDMMPGFEPVPSTLVGKAFERSVDGFINGEVLFVDALEHHHHHH
protein production: not failed

QQKNMENKTLNENIPEMIISLEKEALASTDPMAFVELSDTDVIYFDPSLETKIEGLEQLRTYYKGMQLPPADHFDMIRPVVQVAQNIAVLTFNLDSYLSDKVIKWNCTEVYRRNPDNQWKIIQTHWSYVKPLD
protein production: not failed

MELENIVANTVLLKAREGGGGNRKGKSKKWRQMLQFPHISQCEELRLSLERDYHSLCERQPIGRLLFREFCATRPELSRCVAFLDGVAEYEVTPDDKRKACGRQLTQNFLSHTGPDLIPEVPRQLVTNCTQRLEQGPCKDLFQELTRLTHEYLSVAPFADYLDSIYFNRFLQWKWLERQPVTKNTFRQYRVLGKGGFGEVCACQVRATGKMYACKKLEKKRIKKRKGEAMALNEKQILEKVNSRFVVSLAYAYETKDALCLVLTLMNGGDLKFHIYHMGQAGFPEARAVFYAAEICCGLEDLHRERIVYRDLKPENILLDDHGHIRISDLGLAVHVPEGQTIKGRVGTVGYMAPEVVKNERYTFSPDWWALGCLLYEMIAGQSPFQQRKKKIKREEVERLVKEVPEEYSERFSPQARSLCSQLLCKDPAERLGCRGGSAREVKEHPLFKKLNFKRLGAGMLEPPFKPDPQAIYCKDVLDIEQFSTVKGVELEPTDQDFYQKFATGSVPIPWQNEMVETECFQELNVFGLDGSVPPDLDWKGQPPAPPKKGLLQRLFSRQDCCGNCSDSEEELPTRL
protein production: failed
